# Patent EP0591697B1, “Cloning and characterization of the growth hormone releasing hormone receptor” (Thorner, Michael Oliver, priority 1992, dated 1994)
# Entries after “also recorded” stand apart in the source; their conditions may differ. Where no end group is shown, it is not given here.
# Assays:
# GHRH-R [1] = biological target: T1, GHRH-R (Homo sapiens, UniProt Q02643); experiment: Iodinated GHRHa binding to COS cells / COS cell membranes transfected with pCDM8 containing HAP 7 cDNA; conditions: for binding of iodinated GHRH in presence of peptide: 100 nM of peptide
# T1 construct: expressed in transfected cells
# T1 sequence (Q02643 23-423): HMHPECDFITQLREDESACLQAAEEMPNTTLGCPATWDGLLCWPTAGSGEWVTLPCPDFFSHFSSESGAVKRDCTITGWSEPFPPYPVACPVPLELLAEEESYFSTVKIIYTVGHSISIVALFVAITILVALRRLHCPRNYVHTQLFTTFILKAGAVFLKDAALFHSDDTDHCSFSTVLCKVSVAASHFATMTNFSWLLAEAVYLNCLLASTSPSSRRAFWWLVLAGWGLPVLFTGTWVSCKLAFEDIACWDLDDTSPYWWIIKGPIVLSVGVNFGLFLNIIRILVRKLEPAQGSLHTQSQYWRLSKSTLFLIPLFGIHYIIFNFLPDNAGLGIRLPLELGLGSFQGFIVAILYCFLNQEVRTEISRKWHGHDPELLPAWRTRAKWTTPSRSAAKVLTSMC
# Procedure: The bars indicate the total counts bound to the cells after incubation with ^125I-GHRHa or in the presence of gradually increasing amounts of non-iodinated GRF.
# Binding in the presence of increasing concentrations of competing peptides is shown. […] Each point represents an N of 6 ± standard error. Non-specific binding was 20-30% of total counts in COS cell membranes, and 40-60% in crude pituitary membranes.
# Cos-1 cells were transfected with the vector formed by splicing pCDM8 and HAP cDNA, and Cos-1 cell membranes were prepared 72 hours subsequently. Cos-1 cells were transfected using 10 µg of plasmid DNA per 6x10^5 cells in a 100-mm dish using the DEAE-dextran method described by Cullen. […] COS cell cultures were transfected in parallel with pCDM8 containing a cDNA encoding the rat AT1 angiotensin II receptor.
# [2] = biological target: T2, secretin and VIP receptors (Homo sapiens, UniProt P47872); conditions: human pancreas, cited from earlier work; for inhibition: at 10 µM, 125I-secretin
# T2 construct: host or cells: human pancreas
# T2 sequence (P47872 23-440): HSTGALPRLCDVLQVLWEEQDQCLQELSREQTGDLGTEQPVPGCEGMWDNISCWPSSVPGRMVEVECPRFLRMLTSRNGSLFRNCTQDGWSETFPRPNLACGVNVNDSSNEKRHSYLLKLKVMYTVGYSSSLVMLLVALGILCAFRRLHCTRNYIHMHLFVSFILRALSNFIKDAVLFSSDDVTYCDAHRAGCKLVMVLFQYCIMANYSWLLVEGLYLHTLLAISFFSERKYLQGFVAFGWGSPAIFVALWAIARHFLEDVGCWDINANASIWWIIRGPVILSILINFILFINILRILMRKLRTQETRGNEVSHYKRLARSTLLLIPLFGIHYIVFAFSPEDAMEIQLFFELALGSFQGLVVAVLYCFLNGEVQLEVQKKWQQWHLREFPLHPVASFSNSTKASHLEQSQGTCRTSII
# GHRH-R [3] = experiment: GHRH binding assay in crude anterior pituitary membrane pellets (125I-GHRHa); design: species or system ovine; conditions: for displacement of GHRH in ovine pituitary: at 500 nM; for competition for the GHRHa binding site: at 100 nanomolar concentrations
# Procedure: Specific binding is defined as the difference in the binding seen with 20 pM iodinated analog alone and binding of the analog in the presence of 10 nM non-iodinated GHRHa.
# All steps were performed at 4°C. Frozen ovine or bovine anterior pituitaries (ovine: approximately 1 gm/pituitary obtained from Dr. Ian Clarke, Melbourne, Australia; bovine: approximately 2.5 gm/pituitary special handling from Pel-Freez, of Rogers, Arkansas) were washed of blood, cleaned of connective tissue and homogenized (using a Dounce homogenizer) in 50mM HEPES buffer, 100 mM NaCl, 10mM EDTA, 0.1 µM EGTA, pH 7.4 with 0.5 mM PMSF (phenyl methyl sulfonyl fluoride), 10 µg/ml leupeptin, 10 µg/ml pepstatin A, and 200 U/ml (units/ml) aprotinin. This buffer is used to remove endogenous GTP which might be bound to G proteins and to restore high affinity binding. The homogenate was spun at top speed in a microfuge and the supernatant discarded. The upper (membrane) layer of the pellet was then gently resuspended in binding buffer containing 50 mM Tris buffer, 5 mM EGTA, 5 mM MgCl2, 50µg/ml alamethicin, 30 µg/ml bacitracin and other protease inhibitors as above.
# 1/50 pituitary equivalent per tube was incubated in binding buffer with approximately 100,000 counts of iodinated probe in a volume of 500 µl at room temperature for 1 hour. The total counts delivered and the percent of counts bound for each tube was determined with 3 to 6 replicates per experimental condition. Saturation binding profiles were analyzed with the computer program Ligand which performs a statistically weighted least squares fit to the exact ligand binding equation in nontransformed coordinates.
# GHRH-R [4] = experiment: Photoaffinity cross-linking of receptor in pituitary membranes, SDS-PAGE autoradiography; assay type: binding, ovine
# Procedure: Photoprobe binding in ovine pituitary membrane pellets was determined by γ-counting and UV induced cross-linking was examined by autoradiagraphy of sodium dodecylsulfate polyacrylamide electrophoresis (SDS-PAGE) gels. ^125I-GHRHa-ANB-NOS probe bound with an affinity of about one nanomole, nM (compared to about 160 picomole, pM, for GHRHa).
# Photoprobe binding to membranes was evaluated with crude membrane binding assay and then analyzed further by SDS-PAGE electrophoresis to identify the binding sites. Photoprobes were incubated in the dark, photolysed for 10 minutes with a long wave (366 nm) UV lamp, and then the samples were pelleted. The pellets were counted and then extracted by boiling directly in SDS sample buffer (total SDS extracts). Alternatively, the labeled pellets were extracted in a mild detergent solution (5 mM CHAPS) centrifuged, and the chloroform/methanol concentrated supernatants denatured with SDS buffer (CHAPS extracts). These samples were then electrophoresed in SDS gels and autoradiographed.
molecule,measurement,setting,value
"PHM: competing peptide of the VIP family tested at 100 nM (HADGVFTSDFSKLLGQLSAKKYLESLM; ends and bridges not checked; UniProt P01282 81-107, looked up)",binding of iodinated GHRH in presence of peptide,GHRH-R [1],uneffected
GHRH(1-29)-NH2,inhibition,[2],20%
somatostatin,binding of iodinated GHRH in presence of peptide,GHRH-R [1],uneffected
parathyroid hormone,binding of iodinated GHRH in presence of peptide,GHRH-R [1],uneffected
VIP: vasoactive intestinal peptide,inhibition,[2],20%
same,displacement of GHRH in ovine pituitary,GHRH-R [3],not
same,competition for the GHRHa binding site,GHRH-R [3],no competition; also recorded: did not compete
same,effect on bound counts of GHRHa,"GHRH-R [1]; 100 nM VIP, transfected COS cells, Figure 15",no effect
same,binding of iodinated GHRH in presence of peptide,GHRH-R [1],uneffected
same,effect on 55 kDa cross-linked band,GHRH-R [4]; 100 nM VIP,unaffected
galanin,binding of iodinated GHRH in presence of peptide,GHRH-R [1],uneffected
"O[C@H](CS)[C@H](O)CS (racemic) [DTT, dithiothreitol]",specific binding in the GHRH assay after preincubation,GHRH-R [3]; 1 mM dithiothreitol,completely eliminated
CC[C@H](C)[C@H](NC(=O)CNC(=O)[C@H](CC(=O)O)NC(=O)[C@H](CO)NC(=O)[C@@H](N)Cc1c[nH]cn1)C(=O)N[C@@H](Cc1ccccc1)C(=O)N[C@H](C(=O)N[C@@H](CC(=O)O)C(=O)N[C@@H](CO)C(=O)N[C@@H](Cc1ccc(O)cc1)C(=O)N[C@@H](CO)C(=O)N[C@@H](CCCNC(=N)N)C(=O)N[C@@H](Cc1ccc(O)cc1)C(=O)N[C@@H](CCCNC(=N)N)C(=O)N[C@@H](CCCCN)C(=O)N[C@@H](CCC(N)=O)C(=O)N[C@@H](CCSC)C(=O)N[C@@H](C)C(=O)N[C@H](C(=O)N[C@@H](CCCCN)C(=O)N[C@@H](CCCCN)C(=O)N[C@@H](Cc1ccc(O)cc1)C(=O)N[C@@H](CC(C)C)C(=O)N[C@@H](C)C(=O)N[C@@H](C)C(=O)N[C@H](C(=O)N[C@@H](CC(C)C)C(=O)NCC(=O)N[C@@H](CCCCN)C(=O)N[C@@H](CCCNC(=N)N)C(=O)N[C@@H](Cc1ccc(O)cc1)C(=O)N[C@@H](CCCCN)C(=O)N[C@@H](CCC(N)=O)C(=O)N[C@@H](CCCNC(=N)N)C(=O)N[C@H](C(=O)N[C@@H](CCCCN)C(=O)N[C@@H](CC(N)=O)C(=O)N[C@@H](CCCCN)C(N)=O)C(C)C)C(C)C)C(C)C)[C@@H](C)O [PACAP],displacement of GHRH in ovine pituitary,GHRH-R [3],significant displacement
same,competition for the GHRHa binding site,GHRH-R [3],no competition; also recorded: did not compete
helodermin,Kd,"[2]; using 125I-secretin, read-out: Kds",200 nM
secretin,binding of iodinated GHRH in presence of peptide,GHRH-R [1],uneffected
Nc1nc2c(ncn2[C@@H]2O[C@H](COP(=O)(O)OP(=O)(O)OP(O)(O)=S)[C@@H](O)[C@H]2O)c(=O)[nH]1 [GTPγS],displacement of both photoprobes from membrane pellets,GHRH-R [3]; 50 µM GTPγS,partially displaced
same,reduction of specific binding of GHRHa radioligand,GHRH-R [3]; 50 µM GTPγS,up to 65%
same,reduction of 55 kDa cross-linked band,GHRH-R [4]; 50 µM GTPγS,over 50%
calcitonin,binding of iodinated GHRH in presence of peptide,GHRH-R [1],uneffected
